Consider eight molecules from EP3228631A2 (TLA Targeted Immunotherapies AB, dated 2017).

Assay [1] has as its target hCXCR1 (human) (UniProt P25024). Nature of the assay: cell-based or functional assay.
The target in assay [2] is CCR5 (human) (UniProt P51681). As to the kind of experiment: cell-based or functional assay.
Assay [3] deals with CCR3 (human) (UniProt P51677). As to the kind of experiment: blood passed through the biotinylated RANTES coupled matrix column; flow cytometry for CCR1, 3 or 5-expressing cells; one healthy donor.
CCR3 (human), sequence (P51677 whole entry): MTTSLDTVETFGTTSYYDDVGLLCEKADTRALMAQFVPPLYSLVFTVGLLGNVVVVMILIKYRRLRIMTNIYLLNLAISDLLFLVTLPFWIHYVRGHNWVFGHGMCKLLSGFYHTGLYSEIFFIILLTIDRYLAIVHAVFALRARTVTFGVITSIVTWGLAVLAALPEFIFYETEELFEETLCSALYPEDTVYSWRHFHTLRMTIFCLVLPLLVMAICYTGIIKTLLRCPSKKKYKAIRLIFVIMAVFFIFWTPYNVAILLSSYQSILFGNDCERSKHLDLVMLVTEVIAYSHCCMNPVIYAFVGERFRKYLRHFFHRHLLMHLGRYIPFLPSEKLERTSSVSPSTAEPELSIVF
Assay [4] has as its target T1, CCR1 (human) (UniProt P32246).
T1 sequence (looked up): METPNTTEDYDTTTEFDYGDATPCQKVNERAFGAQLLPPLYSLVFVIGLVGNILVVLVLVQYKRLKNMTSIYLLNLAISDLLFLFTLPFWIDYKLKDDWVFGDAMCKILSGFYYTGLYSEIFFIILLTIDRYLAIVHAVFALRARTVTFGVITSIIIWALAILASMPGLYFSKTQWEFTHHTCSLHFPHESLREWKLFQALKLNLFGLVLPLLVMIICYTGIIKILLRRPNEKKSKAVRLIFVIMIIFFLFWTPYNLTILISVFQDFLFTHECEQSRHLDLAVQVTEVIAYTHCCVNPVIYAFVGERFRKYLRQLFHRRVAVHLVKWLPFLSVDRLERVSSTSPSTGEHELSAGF
Described as above.

Assay [5] addresses CCR5 (human) (UniProt P51681). Described as above.
For assay [6], the target named is CCR3 (human) (UniProt P51677). Nature of the assay: blood passed through the eotaxin coupled matrix (MACS beads, magnetic separator); flow cytometry before and after; one healthy donor.
For assay [7], the target named is T2, CCR7 (human, UniProt P32248 25-378).
T2 sequence (looked up): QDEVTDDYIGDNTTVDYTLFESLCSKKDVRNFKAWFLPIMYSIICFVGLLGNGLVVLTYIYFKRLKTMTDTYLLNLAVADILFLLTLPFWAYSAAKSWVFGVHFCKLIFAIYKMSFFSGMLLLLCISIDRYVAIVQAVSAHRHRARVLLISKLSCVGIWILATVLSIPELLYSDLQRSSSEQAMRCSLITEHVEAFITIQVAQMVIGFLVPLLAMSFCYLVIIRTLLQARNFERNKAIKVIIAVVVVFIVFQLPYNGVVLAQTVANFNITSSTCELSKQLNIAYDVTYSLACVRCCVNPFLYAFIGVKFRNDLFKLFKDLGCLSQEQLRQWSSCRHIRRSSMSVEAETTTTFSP
Nature of the assay: cell-based or functional assay.

In assay [8] the target is CCR3 (human) (UniProt P51677). Nature of the assay: cell-based or functional assay.
The target of assay [9] is T3, hCCR2b (human, UniProt P41597 1-374).
T3 chain: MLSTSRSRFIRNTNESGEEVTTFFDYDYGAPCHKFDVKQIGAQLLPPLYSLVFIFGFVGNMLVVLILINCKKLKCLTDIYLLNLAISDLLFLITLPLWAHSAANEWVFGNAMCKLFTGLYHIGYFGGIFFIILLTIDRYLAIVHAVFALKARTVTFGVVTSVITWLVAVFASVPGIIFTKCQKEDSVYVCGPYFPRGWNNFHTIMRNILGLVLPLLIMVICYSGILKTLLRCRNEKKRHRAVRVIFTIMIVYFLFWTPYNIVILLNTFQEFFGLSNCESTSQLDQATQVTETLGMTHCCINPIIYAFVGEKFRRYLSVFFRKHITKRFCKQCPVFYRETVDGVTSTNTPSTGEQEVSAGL
Nature of the assay: cell-based or functional assay.

hCXCR1 (human), sequence (P25024 whole entry): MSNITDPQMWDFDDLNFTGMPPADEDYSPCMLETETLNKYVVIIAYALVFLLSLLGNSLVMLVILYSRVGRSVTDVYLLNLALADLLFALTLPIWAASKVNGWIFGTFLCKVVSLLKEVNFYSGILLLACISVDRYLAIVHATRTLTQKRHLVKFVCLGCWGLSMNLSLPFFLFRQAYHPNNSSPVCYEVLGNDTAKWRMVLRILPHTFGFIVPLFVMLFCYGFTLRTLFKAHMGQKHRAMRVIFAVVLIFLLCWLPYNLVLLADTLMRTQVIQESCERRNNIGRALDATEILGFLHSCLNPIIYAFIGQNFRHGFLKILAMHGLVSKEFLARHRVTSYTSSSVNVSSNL
CCR5 (human), sequence (P51681 whole entry): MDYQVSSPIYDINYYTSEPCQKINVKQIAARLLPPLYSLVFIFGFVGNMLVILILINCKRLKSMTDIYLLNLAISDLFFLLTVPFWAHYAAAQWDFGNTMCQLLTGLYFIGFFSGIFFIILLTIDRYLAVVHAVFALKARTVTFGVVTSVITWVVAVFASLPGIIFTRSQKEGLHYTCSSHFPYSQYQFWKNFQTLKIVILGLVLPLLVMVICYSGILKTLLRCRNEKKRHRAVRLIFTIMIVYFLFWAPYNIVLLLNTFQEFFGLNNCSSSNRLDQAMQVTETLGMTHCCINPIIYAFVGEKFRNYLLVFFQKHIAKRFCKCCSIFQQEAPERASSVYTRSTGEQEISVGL

Take “biotinIL-8 (6-78) (IL-8 (6-78) derivatised at the ε-amino side chain functionality of Lys(78) with PEG-Biotin) (from UniProt P10145 28-99) (ligand)”: the EC50, agonist activity, Aequorin assay in assay [1] is 6.1 nM. As to “biotinRANTES (RANTES derivatised at the ε-amino side chain functionality of Lys(67) with Biotin) (from UniProt P13501 24-91) (ligand)”, the EC50, agonist activity, Aequorin assay in [2] came to 0.5 nM. Also, the reduction of chemokine receptor-expressing cells by the column in [3], in [4] and in [5] was 20% throughout.

With “biotinylated eotaxin (from UniProt P51671 24-97) (ligand)”, the reduction of CCR3-expressing cells by the column in [6] was found to be 25%. On to “recombinant native IL-8 (from UniProt P10145 28-99) (ligand)”, for which the EC50, Aequorin assay in assay [1] was 4.2 nM. “recombinant native MIP-3β (from UniProt Q99731 22-98) (ligand)” yielded an EC50, Aequorin assay in assay [7] of 1.6 nM.

“recombinant native eotaxin (from UniProt P51671 24-97) (ligand)” gave an EC50, agonist, Aequorin assay in [8] of 10.7 nM.

B1: biotinMIP-3β (MIP-3β derivatised at the ε-amino side chain functionality of Lys(78) with Biotin) (ligand)
chain: GTNDAEDCCLSVTQKPIPGYIVRNFHYLLIKDGCRVPAVVFTTLRGRQLCAPPDQPWVERIIQRLQRTSAKMKRRSSX
modifications: X78 = K(Biotin) (additional C-terminal lysine, biotinylated); C-terminal amide (Rink Amide resin)
For the molecule B1, the “EC50, agonist activity, Aequorin assay” value in assay [7] is 11 nM.

B2: recombinant native MCP-2 (ligand, human, UniProt P80075 24-99, looked up)
chain: QPDSVSIPITCCFNVINRKIPIQRLESYTRITNIQCPKEAVIFKTKRGKEVCADPKERWVRDSMKHLDQIFQNLKP
Regarding B2, in assay [9], the “EC50, partial agonist, Aequorin assay” value was 23.5 nM.
